Assay results: paper PMC3029397

Biological target: dual chain avidin dcAvd(I117C5→4S16C,V115H6→5)
Assay: non-reducing SDS-PAGE; denatured in SDS-PAGE sample buffer without β-mercaptoethanol at 95°C for ten minutes, 15% gel, Coomassie staining

dual chain avidin dcAvd(I117C5→4S16C,V115H6→5)
stoichiometry N: 2
